17 molecules from PMC8188212, “Multi‐Arm PEG/Peptidomimetic Conjugate Inhibitors of DR6/APP Interaction Block Hematogenous Tumor Cell Extravasation” (Advanced Science, 2021) can be followed below.

Square brackets hold non-standard residues; d marks the D form. Side chains are listed from the residue outwards. Ends that are not written are not given here. Peptide text beside a SMILES is read from it. * marks the point of attachment. maleimide = maleimide: 4-arm PEG5k maleimide reacting with the C-terminal Cys thiol; Cbz = O=C(OCc1ccccc1)*; CH2F = FC* A value given as a limit tells only on which side of the number the result lay.

For orientation: Kd means a measure of binding affinity in units of concentration.

T1: DR6 protein (Homo sapiens, UniProt O75509)
T1 construct: purchased Sino Biology, Inc. (Shanghai, China)
T1 sequence (O75509 42-655): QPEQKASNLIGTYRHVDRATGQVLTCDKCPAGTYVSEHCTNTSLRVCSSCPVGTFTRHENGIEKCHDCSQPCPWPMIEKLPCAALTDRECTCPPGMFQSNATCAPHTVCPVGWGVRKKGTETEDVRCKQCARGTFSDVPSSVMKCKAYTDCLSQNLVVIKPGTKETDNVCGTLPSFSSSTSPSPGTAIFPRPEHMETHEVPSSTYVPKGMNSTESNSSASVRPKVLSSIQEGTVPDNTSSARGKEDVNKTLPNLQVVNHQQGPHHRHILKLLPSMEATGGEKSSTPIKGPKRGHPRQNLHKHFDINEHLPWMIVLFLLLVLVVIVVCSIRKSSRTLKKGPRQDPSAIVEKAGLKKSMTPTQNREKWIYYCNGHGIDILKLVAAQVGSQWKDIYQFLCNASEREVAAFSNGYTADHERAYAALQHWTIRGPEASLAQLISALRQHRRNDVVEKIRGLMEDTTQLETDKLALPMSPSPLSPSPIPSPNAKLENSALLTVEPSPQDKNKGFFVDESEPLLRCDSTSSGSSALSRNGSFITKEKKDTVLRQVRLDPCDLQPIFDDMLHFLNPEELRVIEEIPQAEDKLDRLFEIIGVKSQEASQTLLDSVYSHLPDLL

T2: death receptor 6 (DR6) protein (UniProt O75509 42-349, labelled with RED-tris-NTA second-generation dye)
T2 construct: death receptor 6 (DR6), bought recombinant protein; source: bought: Sino Biology, Inc. (Shanghai, China)
T2 sequence (looked up): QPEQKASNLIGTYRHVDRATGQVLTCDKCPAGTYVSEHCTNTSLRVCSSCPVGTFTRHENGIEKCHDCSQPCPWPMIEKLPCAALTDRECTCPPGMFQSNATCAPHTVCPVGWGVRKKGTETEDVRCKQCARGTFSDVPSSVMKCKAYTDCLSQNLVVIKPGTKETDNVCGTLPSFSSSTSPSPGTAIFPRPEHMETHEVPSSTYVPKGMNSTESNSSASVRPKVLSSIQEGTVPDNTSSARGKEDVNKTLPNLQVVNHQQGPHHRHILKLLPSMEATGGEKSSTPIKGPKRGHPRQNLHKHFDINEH

T3: death receptor 6 (DR6) protein (UniProt O75509 42-349, labelled with RED-tris-NTA second-generation dye)
T3 construct: death receptor 6 (DR6), bought recombinant protein; It is probably a soluble extracellular construct, but that is a surmise; source: bought: Sino Biology
T3 sequence (looked up): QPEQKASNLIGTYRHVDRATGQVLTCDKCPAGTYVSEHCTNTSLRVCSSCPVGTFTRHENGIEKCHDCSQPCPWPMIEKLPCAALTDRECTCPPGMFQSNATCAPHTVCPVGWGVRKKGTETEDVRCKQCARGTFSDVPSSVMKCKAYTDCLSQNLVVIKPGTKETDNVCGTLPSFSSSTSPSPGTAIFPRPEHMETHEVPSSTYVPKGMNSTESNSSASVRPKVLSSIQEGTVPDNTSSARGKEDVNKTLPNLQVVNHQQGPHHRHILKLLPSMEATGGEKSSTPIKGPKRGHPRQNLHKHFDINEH

B1: AHP-24 (peptide)
peptide: NHQRLLP
notes: heptapeptide selected from a random phage display library against DR6; source: synthetic peptide (SPPS)
B2: AHP-03 (peptide)
peptide: YLPAPLP
notes: as for B1
B3: AHP-23 (peptide)
peptide: GGLSMTR
notes: as for B1
B4: AHP-05 (peptide)
peptide: YYSGNNL
notes: as for B1
B5: AHP-13 (peptide)
peptide: SHTDTNQ
notes: as for B1
B6: AHP-10 (peptide)
peptide: NGSTHER
notes: as for B1
B7: AHP-01 (peptide)
peptide: WTLSINS
notes: as for B1
B8: AHP‐12 (peptide)
peptide: TIDATTP
notes: heptapeptide selected from a random heptapeptide M13 phage display library against DR6; also called AHP-12 (TIDATTP); source: synthetic peptide (SPPS, HPLC purified)
B9: PEG‐tAHP‐DRI (tetra‐(D‐retro‐inverso isomer of AHP‐12) substitued 4‐arm PEG5k) (other)
peptide: [dP][dT][dT][dA][dD][dI][dT]C([maleimide-4‑arm PEG5k])
modifications: also: four peptides on one 4-arm PEG5k
notes: additional Cys residue at the C-terminal, coupled to the maleimide of the PEG arm; Four peptide chains on one 4-arm PEG5k, not a polypeptide oligomer; also called PEG‐tAHP‐12; PEGylated tetrameric AHP‐DRI‐12; source: synthetic peptide conjugated to 4-arm PEG5k maleimide, dialysed
B10: AHP‐DRI‐12 (D‐retro‐inverso isomer of AHP‐12) (peptide)
peptide: [dP][dT][dT][dA][dD][dI][dT]
notes: Peptidomimetic made of D-amino acids; source: synthetic peptide (SPPS, HPLC purified)

Chain of hERG potassium channel (Q12809 whole entry): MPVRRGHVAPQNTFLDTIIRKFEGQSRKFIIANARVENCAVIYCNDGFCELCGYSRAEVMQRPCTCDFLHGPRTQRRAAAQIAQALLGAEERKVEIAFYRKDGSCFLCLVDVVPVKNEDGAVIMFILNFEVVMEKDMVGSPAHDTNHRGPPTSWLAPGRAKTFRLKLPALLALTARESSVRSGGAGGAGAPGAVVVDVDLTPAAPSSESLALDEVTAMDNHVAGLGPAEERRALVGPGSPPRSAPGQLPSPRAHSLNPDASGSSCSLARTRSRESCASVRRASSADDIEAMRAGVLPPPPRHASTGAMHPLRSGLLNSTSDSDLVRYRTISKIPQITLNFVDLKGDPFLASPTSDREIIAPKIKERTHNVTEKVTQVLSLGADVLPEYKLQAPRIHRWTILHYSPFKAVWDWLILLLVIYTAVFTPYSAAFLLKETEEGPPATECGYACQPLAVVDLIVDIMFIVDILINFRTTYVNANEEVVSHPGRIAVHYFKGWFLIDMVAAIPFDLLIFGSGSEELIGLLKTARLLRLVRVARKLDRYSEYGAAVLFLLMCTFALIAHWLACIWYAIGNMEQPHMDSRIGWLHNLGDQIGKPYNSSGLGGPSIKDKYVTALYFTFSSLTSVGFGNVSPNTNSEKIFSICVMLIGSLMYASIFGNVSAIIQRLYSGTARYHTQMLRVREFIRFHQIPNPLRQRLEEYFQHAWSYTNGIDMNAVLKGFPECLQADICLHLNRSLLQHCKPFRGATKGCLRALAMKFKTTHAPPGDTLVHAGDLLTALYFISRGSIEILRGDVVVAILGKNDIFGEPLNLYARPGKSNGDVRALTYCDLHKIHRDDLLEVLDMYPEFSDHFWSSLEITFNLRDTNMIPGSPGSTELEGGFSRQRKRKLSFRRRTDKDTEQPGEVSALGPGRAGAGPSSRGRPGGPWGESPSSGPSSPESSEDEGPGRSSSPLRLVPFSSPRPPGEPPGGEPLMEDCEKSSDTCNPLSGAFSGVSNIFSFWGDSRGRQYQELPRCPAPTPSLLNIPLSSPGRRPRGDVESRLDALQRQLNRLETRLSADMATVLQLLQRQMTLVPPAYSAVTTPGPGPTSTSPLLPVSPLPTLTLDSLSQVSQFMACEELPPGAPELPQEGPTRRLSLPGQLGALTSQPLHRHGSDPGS

The first data set concerns the target T1, DR6 protein. Description: KD of DR6-targeting peptides for binding to DR6 protein by MST. To be noted: Tables S1 and S2, average of three independent experiments in triplicate, NB = No binding, read-out: KD ± SEM. The method, then: For labeling DR6 protein with Red‐tris‐NTA second‐generation dye, equal volume of DR6 protein (200 × 10^–9 M) and dye (100 × 10^–9 M) were mixed. The solution was incubated for 30 min at room temperature and centrifuged for 10 min at 4 ℃ and 15 000 × g. The DR6 protein was labeled and ready for the binding assay. Prepare 25 µL of the DR6‐targeting peptides at 20 × 10^–6 M and add 10 µL of the PBS‐T into the PCR tubes 2–12. Transfer 20 µL DR6‐targeting peptides into the PCR tube 1 and then transfer 10 µL of the DR6‐targeting peptides from tube 1 to tube 2 with a pipette and mix by pipetting up and down multiple times. Transfer 10 µL to tube 3 and mix. Repeat the procedure for tube 4–12. Add 10 µL of labeled protein to each tube (1–12) and mix by pipetting. The final DR6 protein concentration was 50× 10^−9 M. Load the capillaries and measure the samples by NanoTemper Monolith NT.015.^[ ^51 , ^52 ^]
On to LPRSPLA [AHP-20], for which the Kd is over 10000 nM.

Take MPPFRHD [AHP-19]: the Kd is over 10000 nM.

Take TIPKYER [AHP-15]: the Kd is over 10000 nM.

For the molecule TTYMPKM [AHP-18], the Kd was over 10000 nM.

Regarding YSLHASP [AHP-07], the Kd was over 10000 nM.

A further data set deals with T2, death receptor 6 (DR6) protein. Description: MST; DR6 protein labelled with RED-tris-NTA second-generation dye, final 50 x 10^-9 M; peptide prepared at 20 x 10^-6 M, diluted serially 1:1 in PBS-T over 12 tubes and mixed with an equal volume of labelled DR6; NanoTemper Monolith NT.015. To be noted: both partners purified.
In the case of B1, binding was put at a Kd of 1090 nM.

For the molecule B2, binding was put at a Kd of 688 nM.

As for B3, binding was put at a Kd of 4460 nM.

Molecule B4 yielded a dissociation constant Kd of 1100 nM.

In turn, B5 yielded a Kd of 1150 nM.

With B6, the Kd was 528 nM.

Molecule B7 returned a Kd of 1150 nM.

Test system in a further data set: not listed separately
Description: Pharmacokinetic study after intravenous injection. It counts as in vivo. Particulars: SD rats, FITC-labeled, blood samples 0.5-72 h, microplate reader, n = 3. The procedure:
To investigate the pharmacokinetic profile of AHP‐DRI‐12 and PEG‐tAHP‐DRI, SD rats were intravenously injected with FITC‐labeled AHP‐DRI‐12 and PEG‐tAHP‐DRI and blood samples were collected at 0.5, 1, 2, 4, 6, 24, 30, 48, 54, and 72 h. The DR6‐targeting peptide level of blood samples was measured by a microplate reader.
Regarding `CC[C@@H](C)[C@@H](NC(=O)[C@@H](CC(=O)O)NC(=O)[C@@H](C)NC(=O)[C@H](NC(=O)[C@H](NC(=O)[C@H]1CCCN1)[C@H](C)O)[C@H](C)O)C(=O)N[C@@H](C(=O)O)[C@H](C)O` [AHP-DRI-12] (H-[dP][dT][dT][dA][dD][dI][dT]-OH), the “half-life (T1/2)” value is reported as 7.8 h.

The next data set concerns the target T2, death receptor 6 (DR6) protein. As to the kind of experiment: MST; DR6 protein labelled with RED-tris-NTA second-generation dye, final 50 x 10^-9 M; peptide prepared at 20 x 10^-6 M, diluted serially 1:1 in PBS-T over 12 tubes and mixed with an equal volume of labelled DR6; NanoTemper Monolith NT.015. To be noted: both partners purified. This is another data set of the same source.
Molecule B5 displayed a Kd of 457 ± 11.6 nM.

Test system in a further data set: not listed separately
Description: In vivo safety analysis in healthy mice. Also on record: species or system C57BL/6 mice. Particulars: healthy mice, intravenous, 0.2 µg g^–1 AHP-DRI-12; sacrificed day 2 or day 15. The method, then: For evaluating the toxicity of peptides in vivo, 6 week old healthy mice were intravenously injected with AHP‐DRI‐12 and PEG‐tAHP‐DRI (0.2 µg g^–1 AHP‐DRI‐12). After 2 and 15 days, mice were sacrificed and serum samples were collected for the biochemical analysis (ALT, AST, BRU, and URE). Tissue samples from various organs were collected for tissue sections. The tissue sections were analyzed by H&E staining and immunohistochemistry analysis.
With `CC[C@@H](C)[C@@H](NC(=O)[C@@H](CC(=O)O)NC(=O)[C@@H](C)NC(=O)[C@H](NC(=O)[C@H](NC(=O)[C@H]1CCCN1)[C@H](C)O)[C@H](C)O)C(=O)N[C@@H](C(=O)O)[C@H](C)O` [AHP-DRI-12] (H-[dP][dT][dT][dA][dD][dI][dT]-OH), the “damage to liver or kidney, blood biochemical indexes (ALT, AST, BRU, URE)” value is “could not cause any damage to liver or kidney”.

For the next data set, the system named is TCs over HUVECs monolayer. As to the kind of experiment: Transendothelial migration of TCs over HUVEC monolayer. It counts as cell-based, human. To be noted: AHP-DRI-12 and PEG-tAHP-DRI 1 × 10^−6 M (AHP-DRI-12), Nec-1 30 × 10^–6 M, zVAD 100 × 10^–6 M; 48 h; compared with control; n = 3. The procedure:
HUVECs (1 × 10^5) in DMEM were added into 24‐well plate transwell upper chambers and the medium was changed every 2 days. Using the EVOM resistance tester, the transendothelial resistance was measured daily. When the TEER resistance value was >200 Ωcm^2, the cells grew into a monolayer of tight connection. 2 × 10^5 GFP‐TCs were added into upper chambers. One milliliter DMEM containing 10% FBS was added into lower chambers overnight. AHP‐DRI‐12 and PEG‐tAHP‐DRI (1 ×10^–6 M AHP‐DRI‐12), Nec‐1 (30 × 10^–6 M), and zVAD (100 × 10^–6 M) were added in upper chambers, respectively. After incubation for 48 h, cells in lower chambers were observed by fluorescence microscope.^[ ^56 ^]
As to `COC(=O)C[C@H](NC(=O)[C@H](C)NC(=O)[C@@H](NC(=O)OCc1ccccc1)C(C)C)C(=O)CF` [zVAD, z‐VAD‐fmk, reference compound] (Cbz-Val-Ala-Asp(OMe)-CH2F), the TCs transendothelial migration result is “increased number of migrated TCs”.

Another data set addresses T3, death receptor 6 (DR6) protein. As to the kind of experiment: MST; DR6 protein labelled with RED-tris-NTA second-generation dye, final 50 × 10^-9 M; peptides prepared at 20 × 10^-6 M and diluted serially 1:1 over 12 tubes in PBS-T; NanoTemper Monolith NT.015. Particulars: both partners purified.
B8 displayed a Kd of 322 nM.

Regarding B9, the Kd was 51.1 nM.

B10 had a Kd of 225 nM.

The target in another data set is hERG potassium channel (Homo sapiens, UniProt Q12809). Description: Whole-cell patch clamp recording of hERG current. It counts as cell-based. Particulars: cisapride as positive control. The procedure:
In addition, some common adverse effects suffered by frequently used medications were also evaluated. The whole‐cell patch clamp recording technique was used to record the whole‐cell hERG‐potassium to measure the cardiac toxicity of peptidomimetic agents on hERG potassium channel by utilizing cisapride as positive control (Figure 6E; Figure S10, Supporting Information). […] Meanwhile, the blood biochemical indexes of ligand‐treated mice sacrificed on day 2 or day 15 were tested to examine the influences of peptidomimetic agents to liver and kidney (Figure S11, Supporting Information).
(Patch clamp records ionic current or voltage across a cell membrane.)
`CC[C@@H](C)[C@@H](NC(=O)[C@@H](CC(=O)O)NC(=O)[C@@H](C)NC(=O)[C@H](NC(=O)[C@H](NC(=O)[C@H]1CCCN1)[C@H](C)O)[C@H](C)O)C(=O)N[C@@H](C(=O)O)[C@H](C)O` [AHP-DRI-12] (H-[dP][dT][dT][dA][dD][dI][dT]-OH): the “inhibitory effect on hERG channels” value is “no significant inhibitory effect”.
